Experiments:
[1] = target: T1, Human IL-2Rβ&IL-2Rγ heterodimer protein (human, UniProt P14784 27-239; P31785 23-262, limits assumed); test: SPR (Biacore, receptor on CM5 chip, IL-2 as analyte), 1:1 binding
T1 construct: Heterodimer protein used as SPR ligand; also called IL-2Rβγ; Human IL-2RB&G
T1 sequence (looked up) 1: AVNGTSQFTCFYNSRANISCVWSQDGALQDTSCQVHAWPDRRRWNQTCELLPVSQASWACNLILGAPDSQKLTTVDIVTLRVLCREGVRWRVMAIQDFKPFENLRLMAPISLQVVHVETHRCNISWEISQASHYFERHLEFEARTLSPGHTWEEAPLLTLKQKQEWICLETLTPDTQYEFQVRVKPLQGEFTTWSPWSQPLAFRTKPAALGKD
T1 sequence (looked up) 2: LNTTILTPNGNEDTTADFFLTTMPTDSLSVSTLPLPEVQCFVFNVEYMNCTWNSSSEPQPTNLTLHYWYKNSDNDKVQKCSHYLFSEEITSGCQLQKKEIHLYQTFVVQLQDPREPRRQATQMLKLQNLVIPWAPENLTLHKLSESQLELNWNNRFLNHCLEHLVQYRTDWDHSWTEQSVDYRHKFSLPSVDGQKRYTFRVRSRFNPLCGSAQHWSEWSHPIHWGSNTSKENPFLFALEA
Procedure: (§1) The human IL-2 receptors used in this study included IL-2Rα/CD25, IL-2Rβ/CD122, common γ receptor/CD132, IL-2Rβ&IL-2Rγ heterodimer protein, and IL-2Rβ&IL-2Rα&IL-2Rγ protein. The IL-2 receptor proteins were immobilized on a Biacore™ sensor chip CM5 according to manufacturer's protocol. […] The resulting sensorgrams were analyzed with the native instrument software to calculate the binding affinities.

[2] = target: T2, Human IL-2Rβ&IL-2Rα&IL-2Rγ protein (human, UniProt P14784 27-239; P01589 22-217; P31785 23-262, limits assumed); test: as above
T2 construct: Trimeric receptor protein used as SPR ligand; also called IL-2Rαβγ; Human IL-2RB&IL-2RA&IL-2RG
T2 sequence (looked up) 1: T1 sequence (looked up) 1
T2 sequence (looked up) 2: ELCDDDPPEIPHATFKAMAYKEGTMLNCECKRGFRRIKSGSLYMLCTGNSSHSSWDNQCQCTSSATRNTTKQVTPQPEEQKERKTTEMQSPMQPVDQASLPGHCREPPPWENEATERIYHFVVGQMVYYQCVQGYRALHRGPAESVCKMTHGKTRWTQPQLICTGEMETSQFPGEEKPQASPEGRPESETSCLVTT
T2 sequence (looked up) 3: T1 sequence (looked up) 2
Procedure: as §1

[3] = target: T3, mouse intermediate-affinity IL-2 receptor IL-2Rβγ on cells (mouse, UniProt P16297 27-539; P34902 23-369); test: cell-based or functional assay
T3 sequence (looked up) 1: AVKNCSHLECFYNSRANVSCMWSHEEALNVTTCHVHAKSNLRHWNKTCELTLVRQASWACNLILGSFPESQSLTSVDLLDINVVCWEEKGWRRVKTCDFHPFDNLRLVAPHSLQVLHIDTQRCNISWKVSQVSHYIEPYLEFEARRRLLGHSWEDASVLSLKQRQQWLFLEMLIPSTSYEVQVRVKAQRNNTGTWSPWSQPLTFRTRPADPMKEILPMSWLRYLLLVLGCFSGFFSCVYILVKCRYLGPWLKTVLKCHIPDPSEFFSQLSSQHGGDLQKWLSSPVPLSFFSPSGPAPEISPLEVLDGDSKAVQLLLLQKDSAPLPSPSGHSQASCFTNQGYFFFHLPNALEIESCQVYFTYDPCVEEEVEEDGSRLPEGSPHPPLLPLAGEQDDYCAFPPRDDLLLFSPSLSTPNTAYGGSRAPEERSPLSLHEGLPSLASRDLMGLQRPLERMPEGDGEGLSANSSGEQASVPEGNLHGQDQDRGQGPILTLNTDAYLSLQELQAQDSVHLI
T3 sequence (looked up) 2: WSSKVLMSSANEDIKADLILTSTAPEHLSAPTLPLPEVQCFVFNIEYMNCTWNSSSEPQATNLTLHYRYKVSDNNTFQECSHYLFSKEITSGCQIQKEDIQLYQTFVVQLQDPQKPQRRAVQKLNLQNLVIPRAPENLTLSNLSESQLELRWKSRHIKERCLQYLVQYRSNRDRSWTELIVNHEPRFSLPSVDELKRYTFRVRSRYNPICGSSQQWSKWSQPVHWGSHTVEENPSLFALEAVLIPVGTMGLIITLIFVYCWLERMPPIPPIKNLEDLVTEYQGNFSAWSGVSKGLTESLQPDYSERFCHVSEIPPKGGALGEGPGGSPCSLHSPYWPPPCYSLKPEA

[4] = target: T4, mouse high-affinity IL-2 receptor IL-2Rαβγ on cells (mouse, UniProt P01590 22-268; P16297 27-539; P34902 23-369); test: cell-based or functional assay
T4 sequence (looked up) 1: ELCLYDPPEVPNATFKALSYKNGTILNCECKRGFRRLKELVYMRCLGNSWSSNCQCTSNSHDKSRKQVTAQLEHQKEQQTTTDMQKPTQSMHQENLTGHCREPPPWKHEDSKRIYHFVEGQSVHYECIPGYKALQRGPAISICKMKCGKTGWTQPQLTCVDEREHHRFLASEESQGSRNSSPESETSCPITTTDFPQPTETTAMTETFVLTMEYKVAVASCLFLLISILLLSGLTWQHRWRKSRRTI
T4 sequence (looked up) 2: T3 sequence (looked up) 1
T4 sequence (looked up) 3: T3 sequence (looked up) 2

Kd [1]: 467 pM
koff [1]: 0.00106 s⁻¹
kon [1]: 2.28e+06 M⁻¹ s⁻¹
Kd [2]: 575 pM
koff [2]: 0.000732 s⁻¹
kon [2]: 1.27e+06 M⁻¹ s⁻¹
% pSTAT5 in mouse splenocytes at High IL-2v concentration (25 nM per paragraph 254); western blot, pSTAT5/STAT5 normalised to 001 High [3]: 126%
% pSTAT5 in mouse splenocytes at Low IL-2v concentration (2.5 nM per paragraph 254); western blot, pSTAT5/STAT5 normalised to 001 High [4]: 22.8%
B1: CP-trIL-2 012 (ligand)
chain: PTSSSTKKTQLQLEHLLLDLQMILNGINNYKNPLRPRDLISNINVIVLELKGSETTELKHLQSLEEELKDLEEVLNLAQSKNFHTIVEFLNRWITFSQSIISTLT
notes: H1-H3-H2-H4; loops 1 and 2 removed; de-Ala1, C58S, C125S, P65D
